In publication PMC5378476, “Mechanism of ribosome rescue by ArfA and RF2” (eLife, 2017):

Target: T1, release factor RF2 (E. coli K12, UniProt P07012 1-365)
T1 construct: Peptide chain release factor RF2, E. coli K12 strain; SPF motif at 205-207, GGQ motif at 250-252, switch loop aa 315-323; source: purified as described (Korostelev et al., 2008; Laurberg et al., 2008)
T1 sequence: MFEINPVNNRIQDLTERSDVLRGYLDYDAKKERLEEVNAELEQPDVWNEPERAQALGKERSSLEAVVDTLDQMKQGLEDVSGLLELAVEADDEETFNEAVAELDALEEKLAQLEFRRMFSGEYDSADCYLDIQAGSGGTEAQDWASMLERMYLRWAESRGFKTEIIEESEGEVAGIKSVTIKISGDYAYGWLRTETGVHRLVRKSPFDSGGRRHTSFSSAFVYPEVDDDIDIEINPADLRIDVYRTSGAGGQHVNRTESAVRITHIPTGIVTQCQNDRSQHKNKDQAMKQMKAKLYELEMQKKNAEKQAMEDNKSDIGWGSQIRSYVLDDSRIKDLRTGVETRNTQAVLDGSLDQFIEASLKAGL
Assay: cryo-EM structure; 70S•mRNA•tRNAfMet•ArfA•RF2 complex reconstituted in vitro from 30S and 50S subunits, mRNA truncated after the P-site AUG; 20 mM Tris-HCl pH 7.0, 100 mM NH4Cl, 20 mM MgCl2, 0.5 mM EDTA, 6 mM βME; on grids ~0.45 µM 70S, 10 µM ArfA, 10 µM RF2; two classes (Structure I, compact RF2; Structure II, extended RF2) from one dataset
Conditions: both partners purified

binding result: binds
B1: ArfA (alternative rescue factor A) (natural protein, E. coli, UniProt P36675 1-60, looked up)
chain: MSRYQHTKGQIKDNAIEALLHDPLFRQRVEKNKKGKGSYMRKGKHGNRGNWEASGKKVNH
notes: ArfA, E. coli, gene from the ASKA Clone(-) library; the forward primer starts at the first ATG of the gene after the His6 codons, the reverse primer ends at the codon of residue 60; The natural protein is longer than 60 residues; the construct is cut short at the C-terminus; No density for the His6 tag in the maps; source: E. coli BLR/DE3, pET24b+, purified (Ni-NTA, ion exchange, size exclusion); …
